According to publication PMC9589210:

Experiments:
[1] = target: microtubules polymerised from bovine brain tubulin (bovine (endogenous in brain)) (UniProt Q6B856); assay: TIRF microscopy (fluorescence intensity of labeled Tau on microtubules); occupancy: 750 nM Alexa-647 Tau on dynamic microtubules grown from surface-held GMPCPP seeds with 5 μM tubulin, 1 mM GTP, TIRF assay buffer (BRB80, 10 mM DTT, oxygen scavenger), 37 °C; normalized average fluorescence intensity, seeds excluded
[2] = target: microtubules polymerised from bovine brain tubulin (bovine (endogenous in brain)) (UniProt Q6B856)
[3] = target: microtubules polymerised from bovine brain tubulin (bovine (endogenous in brain)) (UniProt Q6B856); assay: TIRF microscopy (single-molecule imaging); 750 nM unlabeled Tau spiked with 300 pM Alexa-647-labeled Tau on dynamic microtubules (5 μM tubulin, 10% Alexa-488) grown from surface-held GMPCPP seeds, TIRF assay buffer, 37 °C, 10 frames/s
[4] = target: WT-Tau, 3RS isoform, Alexa 488-labeled (construct for FCS) (UniProt P10636); assay: fluorescence correlation spectroscopy (FCS); ~20 nM Alexa 488-labeled Tau, tubulin titrated 0.5-10 μM, nonpolymerizing conditions, BRB80 (80 mM Pipes, 1 mM EGTA, 1 mM MgCl2, pH 6.9), 20 °C, 5 min incubation; diffusion times normalised to that without tubulin and fit to a binding model
[5] = target: R5L-Tau, 3RS isoform, Alexa 488-labeled (construct for FCS) (UniProt P10636); assay: as above

Row | Substance | relative normalized fluorescence intensity of Tau on dynamic microtubules [1] | microtubule growth rate at the minus end, dynamic microtubules with 750 nM unlabeled Tau (TIRF) [2] [μm/min] | microtubule growth rate at the plus end, dynamic microtubules with 750 nM unlabeled Tau (TIRF) [2] [μm/min] | microtubule shrinkage rate at the minus end, dynamic microtubules with 750 nM unlabeled Tau (TIRF) [2] [μm/min] | microtubule shrinkage rate at the plus end, dynamic microtubules with 750 nM unlabeled Tau (TIRF) [2] [μm/min] | dwell time of diffusive events [3] [s] | dwell time of static events [3] [s] | percent static binding [3] [%] | increase of the normalized diffusion time of Tau at saturation [4] [%] | increase of the normalized diffusion time of Tau at saturation [5] [%]
1 | R5L-Tau, 3RS isoform (construct for TIRF microscopy), Alexa 647-labeled (from UniProt P10636-2 1-352) (natural protein) | 0.68 | 0.41 | 1.04 | 10.4 | 11 | 0.5 | 0.7 | 18 | – | –
2 | WT-Tau, 3RS isoform (construct for TIRF microscopy), Alexa 647-labeled (from UniProt P10636-2 1-352) (natural protein) | 1 | 0.4 | 1 | 7.12 | 7.55 | 0.6 | 0.7 | 43 | – | –
3 | tubulin (free, soluble), purified from bovine brain (from UniProt Q6B856 1-445) (complex) | – | – | – | – | – | – | – | – | 50 | 50
